Laboratory results: patent US20140072613A1 (published 2014)

Tests used:
Assay in all cases: cell-based or functional assay
MAPKAP-K2(h) = MAPKAP-K2(h) (human, UniProt P49137 46-400)
MAPKAP-K3(h) = MAPKAP-K3(h) (human, UniProt Q16644 1-382, limits assumed)
CaMKI(h) = CaMKI(h) (human, UniProt Q14012 1-370)
TrkB(h) = TrkB(h) (human, UniProt Q16620 455-822, limits assumed)
PKA(h) = PKA(h) (human, UniProt P17612 1-351)
Plk1(h) = Plk1(h) (human, UniProt P53350 1-603)
cKit(V560G)(h) = cKit(V560G)(h) (human, UniProt P10721 544-976)
LIMK1(h) = LIMK1(h) (human, UniProt P53667 285-638, limits assumed)
Rsk1(h) = Rsk1(h) (human, UniProt Q15418 1-735)
CK2α2(h) = CK2α2(h) (human, UniProt P19784 1-350)
c-RAF(h) = c-RAF(h) (human, UniProt P04049 306-648, limits assumed)
PKGη(h) = PKGη(h) (human)
SAPK2a(T106M)(h) = SAPK2a(T106M)(h) (human, UniProt Q16539 1-360)
JAK3(h) = JAK3(h) (human, UniProt P52333 781-1124, limits assumed)
Tie2(R849W)(h) = Tie2(R849W)(h) (human, UniProt Q02763 771-1124, limits assumed)
PASK(h) = PASK(h) (human, UniProt Q96RG2 879-1323, limits assumed)
SRPK2(h) = SRPK2(h) (human, UniProt P78362 1-688, limits assumed)
EGFR(L858R)(h) = EGFR(L858R)(h) (human, UniProt P00533 696-1210, limits assumed)
FAK(h) = FAK(h) (human, UniProt Q05397 1-1052, limits assumed)
ACK1(h) = ACK1(h) (human, UniProt Q07912 110-476, limits assumed)
EphB3(h) = target: T1, EphB3(h) (human, UniProt P54753 581-998, limits assumed)
T1 sequence (looked up): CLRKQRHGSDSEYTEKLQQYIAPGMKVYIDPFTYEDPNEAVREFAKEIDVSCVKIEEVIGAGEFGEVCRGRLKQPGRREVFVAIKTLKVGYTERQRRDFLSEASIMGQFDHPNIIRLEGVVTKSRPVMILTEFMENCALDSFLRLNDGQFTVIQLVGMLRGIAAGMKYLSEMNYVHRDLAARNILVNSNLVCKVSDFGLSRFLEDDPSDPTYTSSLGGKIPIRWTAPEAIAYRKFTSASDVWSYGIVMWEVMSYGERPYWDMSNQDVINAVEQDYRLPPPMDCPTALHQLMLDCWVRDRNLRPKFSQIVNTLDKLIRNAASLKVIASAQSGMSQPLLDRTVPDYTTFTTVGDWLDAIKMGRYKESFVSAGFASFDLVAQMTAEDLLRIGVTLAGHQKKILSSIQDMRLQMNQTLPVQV

GRK5(h) = GRK5(h) (human, UniProt P34947 1-590)
Tie2(Y897S)(h) = Tie2(Y897S)(h) (human, UniProt Q02763 771-1124, limits assumed)
PAK2(h) = PAK2(h) (human, UniProt Q13177 1-524)
HIPK3(h) = HIPK3(h) (human, UniProt Q9H422 163-562, limits assumed)
CK1γ1(h) = CK1γ1(h) (human, UniProt Q9HCP0 1-422)
Abl(M351T)(h) = Abl(M351T)(h) (human, UniProt P00519 27-1130, limits assumed)
PAK5(h) = PAK5(h) (human, UniProt Q9P286 1-719, limits assumed)
JAK2(h) = JAK2(h) (human, UniProt O60674 808-1132, limits assumed)

## KAFAKLAARLYRKALARQLGVAA [MMI-0400]
MAPKAP-K2(h)
  inhibition of kinase activity at 100 µM: > 65%
MAPKAP-K3(h)
  inhibition of kinase activity at 100 µM: > 65%
CaMKI(h)
  inhibition of kinase activity at 100 µM: > 65%
TrkB(h)
  inhibition of kinase activity at 100 µM: > 65%
PKA(h)
  % activity, 100 µM: 119%
Plk1(h)
  % activity, 100 µM: 119%
cKit(V560G)(h)
  % activity, 100 µM: 124%
LIMK1(h)
  % activity, 100 µM: 92%
Rsk1(h)
  % activity, 100 µM: 54%
CK2α2(h)
  % activity, 100 µM: 96%
c-RAF(h)
  % activity, 100 µM: 102%
PKGη(h)
  % activity, 100 µM: 98%
SAPK2a(T106M)(h)
  % activity, 100 µM: 99%
JAK3(h)
  % activity, 100 µM: 122%
Tie2(R849W)(h)
  % activity, 100 µM: 108%
PASK(h)
  % activity, 100 µM: 28%
SRPK2(h)
  % activity, 100 µM: 97%
EGFR(L858R)(h)
  % activity, 100 µM: 52%
FAK(h)
  % activity, 100 µM: 96%
ACK1(h)
  % activity, 100 µM: 95%
EphB3(h)
  % activity, 100 µM: 47%
GRK5(h)
  % activity, 100 µM: 131%
Tie2(Y897S)(h)
  % activity, 100 µM: 87%
PAK2(h)
  % activity, 100 µM: 59%

## FAKLAARLYRKALARQLGVAA [MMI-0300]
MAPKAP-K2(h)
  inhibition of kinase activity at 100 µM: > 65%
MAPKAP-K3(h)
  inhibition of kinase activity at 100 µM: > 65%
CaMKI(h)
  inhibition of kinase activity at 100 µM: > 65%
TrkB(h)
  inhibition of kinase activity at 100 µM: > 65%
LIMK1(h)
  % activity, 100 µM: 88%
Rsk1(h)
  % activity, 100 µM: 46%
HIPK3(h)
  % activity, 100 µM: 93%
CK1γ1(h)
  % activity, 100 µM: 111%
SAPK2a(T106M)(h)
  % activity, 100 µM: 97%
Abl(M351T)(h)
  % activity, 100 µM: 90%
PASK(h)
  % activity, 100 µM: 29%
PAK5(h)
  % activity, 100 µM: 110%
JAK2(h)
  % activity, 100 µM: 133%
EphB3(h)
  % activity, 100 µM: 62%
Tie2(Y897S)(h)
  % activity, 100 µM: 83%
PAK2(h)
  % activity, 100 µM: 65%
